We go through one substance from patent US9896488B2.

This experiment has as its target Fc-tagged extracellular domain of RPTPσ (wild type) (mouse) (UniProt B0V2N1). Put plainly: ELISA: RPTPσ-Fc on protein G plates, biotinylated aggrecan (5 ug/ml) preincubated with protamine (0-5 ug/ml). The reference is binding without protamine.

Turning to “Biotinylated aggrecan (from UniProt P13608)”, the fold increase of binding in the presence of protamine was determined as 2 fold.
